How the values were obtained:
Human VSIG4-L-Fc [1] = target: T1, Human VSIG4-L-Fc (human); test: ligand competition ELISA (FJB), blocked ligand iC3b, 200 nM mAb
T1 construct: also called hVSIG4-L-Fc; hVSIG4-L

Human VSIG4-L-Fc [2] = target: T1, Human VSIG4-L-Fc; test: BLI cross-blocking on hVSIG4-L-Fc, competitor 14C05 first
Human VSIG4-L-Fc [3] = target: T1, Human VSIG4-L-Fc; test: ligand competition ELISA (FJB), blocked ligand iC3b
[4] = target: T2, Human VSIG4-L-CHO (human VSIG4 long isoform on CHO-K1 cells) (human, UniProt Q9Y279 20-399); test: flow cytometry (FJB), 200 nM mAb, huVSIG4-L CHO-K1 cells
T2 construct: also called hVSIG4-L (flow cytometry)
T2 sequence: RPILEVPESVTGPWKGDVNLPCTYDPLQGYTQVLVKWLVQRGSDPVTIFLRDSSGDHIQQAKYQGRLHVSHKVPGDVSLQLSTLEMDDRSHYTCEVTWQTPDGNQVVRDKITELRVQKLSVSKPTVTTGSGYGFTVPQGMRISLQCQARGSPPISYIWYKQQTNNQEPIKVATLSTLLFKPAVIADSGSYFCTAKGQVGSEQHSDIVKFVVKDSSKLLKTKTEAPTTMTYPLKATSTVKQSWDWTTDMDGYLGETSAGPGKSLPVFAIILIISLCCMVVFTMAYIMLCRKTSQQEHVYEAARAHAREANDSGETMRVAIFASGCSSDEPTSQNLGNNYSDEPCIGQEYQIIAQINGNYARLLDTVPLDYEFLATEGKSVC

Human VSIG4-L-Fc [5] = target: T1, Human VSIG4-L-Fc; test: BLI cross-blocking on hVSIG4-L-Fc, competitor 12A12 first
Human VSIG4-L-Fc [6] = target: T1, Human VSIG4-L-Fc; test: ligand competition ELISA (FJB), blocked ligand C3b, 200 nM mAb
Mouse VSIG4-His [7] = target: T3, Mouse VSIG4-His (mouse); test: ELISA (FJB), muVSIG4-His
T3 construct: ECD with His tag; also called mVSIG4
T3 chain: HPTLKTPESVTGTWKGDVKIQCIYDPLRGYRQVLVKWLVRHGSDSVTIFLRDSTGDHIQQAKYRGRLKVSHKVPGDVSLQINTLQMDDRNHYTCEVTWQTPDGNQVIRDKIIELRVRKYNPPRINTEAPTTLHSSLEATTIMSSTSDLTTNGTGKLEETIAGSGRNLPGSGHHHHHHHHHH

[8] = target: T2, Human VSIG4-L-CHO (human VSIG4 long …); test: flow cytometry (FJB), huVSIG4-L CHO-K1 cells
[9] = target: T2, Human VSIG4-L-CHO (human VSIG4 long …); test: flow cytometry (FJB), 200 nM mAb, huVSIG4-L CHO-K1 over parental CHO-K1
Human VSIG4-L-Fc [10] = target: T1, Human VSIG4-L-Fc; test: BLI cross-blocking on hVSIG4-L-Fc, competitor 16G02 first
Human VSIG4-L-Fc [11] = target: T1, Human VSIG4-L-Fc; test: ligand competition ELISA (FJB), blocked ligand C3b
[12] = target: T4, Cynomolgus Monkey VSIG4-L-His (cynomolgus monkey); test: SPR (FJB)
T4 construct: ECD with His tag; also called cyVSIG4-L; cyno VSIG4-L-His
T4 chain: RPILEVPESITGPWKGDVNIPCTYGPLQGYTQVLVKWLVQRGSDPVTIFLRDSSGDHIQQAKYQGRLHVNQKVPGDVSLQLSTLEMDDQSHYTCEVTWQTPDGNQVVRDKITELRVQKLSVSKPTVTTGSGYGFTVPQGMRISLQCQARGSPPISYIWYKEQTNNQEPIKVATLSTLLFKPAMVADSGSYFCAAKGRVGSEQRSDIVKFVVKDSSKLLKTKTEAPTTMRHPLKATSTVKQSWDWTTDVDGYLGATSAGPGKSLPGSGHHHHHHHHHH

Human VSIG4-L-His [13] = target: T5, Human VSIG4-L-His (human, UniProt Q9Y279 20-283); test: SPR (FJB)
T5 construct: long isoform ECD with His tag; also called hVSIG4-L
T5 sequence: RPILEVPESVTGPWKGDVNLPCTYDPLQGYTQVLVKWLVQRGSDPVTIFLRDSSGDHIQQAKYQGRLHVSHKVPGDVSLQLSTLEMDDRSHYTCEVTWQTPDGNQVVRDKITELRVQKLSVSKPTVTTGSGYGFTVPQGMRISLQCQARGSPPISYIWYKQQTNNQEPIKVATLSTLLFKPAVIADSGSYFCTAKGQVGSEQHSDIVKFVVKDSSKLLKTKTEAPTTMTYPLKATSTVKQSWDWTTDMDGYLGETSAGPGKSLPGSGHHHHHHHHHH

Human VSIG4-L-Fc [14] = target: T1, Human VSIG4-L-Fc; test: BLI binning on hVSIG4-L-Fc, competitor 13H11 first;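 note: normalized to binding of second antibody without first competitor antibody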
Human VSIG4-L-Fc [15] = target: T1, Human VSIG4-L-Fc; test: BLI binning on hVSIG4-L-Fc, competitor 16E10 first;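 note: normalized to binding of second antibody without first competitor antibody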
Human VSIG4-L-His [16] = target: T5, Human VSIG4-L-His; test: BLI (Octet), IgG on AHC sensor, antigen 100 nM
Human VSIG4-L-Fc [17] = target: T1, Human VSIG4-L-Fc; test: BLI binning on hVSIG4-L-Fc, competitor 16E03 first;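 note: normalized to binding of second antibody without first competitor antibody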
[18] = target: T4, Cynomolgus Monkey VSIG4-L-His; test: ELISA, IgG 50 nM on coated antigen; ELISA, bivalent IgG on plate-coated cyVSIG4-L (avid format)
Human VSIG4-L-Fc [19] = target: T1, Human VSIG4-L-Fc; test: BLI binning on hVSIG4-L-Fc, competitor 15C03 first;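 note: normalized to binding of second antibody without first competitor antibody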
Human VSIG4-L-Fc [20] = target: T1, Human VSIG4-L-Fc; test: BLI binning on hVSIG4-L-Fc, competitor 12A12 first;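 note: normalized to binding of second antibody without first competitor antibody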
Human VSIG4-L-Fc [21] = target: T1, Human VSIG4-L-Fc; test: BLI binning on hVSIG4-L-Fc, competitor 15C04 first;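 note: normalized to binding of second antibody without first competitor antibody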
Human VSIG4-S-Fc = target: T6, Human VSIG4-S-Fc (human); test: ELISA, IgG 50 nM on coated antigen;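 note: Mouse-human chimeric IgG4 antibodies incubated 1 h on plate-coated VSIG4 proteins, bound IgG detected with HRP-labelled anti-human IgG, irrelevant antibody and protein as specificity controls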
T6 construct: short isoform ECD fused to human Fc1; also called hVSIG4-S

Mouse VSIG4-His [22] = target: T3, Mouse VSIG4-His; test: ELISA, IgG 50 nM on coated antigen;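 note: Mouse-human chimeric IgG4 antibodies incubated 1 h on plate-coated VSIG4 proteins, bound IgG detected with HRP-labelled anti-human IgG, irrelevant antibody and protein as specificity controls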
Human VSIG4-L-Fc [23] = target: T1, Human VSIG4-L-Fc; test: ELISA, IgG 50 nM on coated antigen;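 note: Mouse-human chimeric IgG4 antibodies incubated 1 h on plate-coated VSIG4 proteins, bound IgG detected with HRP-labelled anti-human IgG, irrelevant antibody and protein as specificity controls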
[24] = target: T2, Human VSIG4-L-CHO (human VSIG4 long …); test: flow cytometry, CHO-K1 cells expressing hVSIG4-L
Human VSIG4-L-Fc [25] = target: T1, Human VSIG4-L-Fc; test: BLI binning on hVSIG4-L-Fc, competitor 14D12 first;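 note: normalized to binding of second antibody without first competitor antibody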
Human VSIG4-L-Fc [26] = target: T1, Human VSIG4-L-Fc; test: BLI binning on hVSIG4-L-Fc, competitor 14C05 first;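 note: normalized to binding of second antibody without first competitor antibody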
Human VSIG4-S-His = target: T7, Human VSIG4-S-His (human, UniProt Q9Y279 20-283); test: BLI (Octet), IgG on AHC sensor
T7 construct: short isoform ECD with His tag; also called hVSIG4-S; VISG4-S-His
T7 sequence: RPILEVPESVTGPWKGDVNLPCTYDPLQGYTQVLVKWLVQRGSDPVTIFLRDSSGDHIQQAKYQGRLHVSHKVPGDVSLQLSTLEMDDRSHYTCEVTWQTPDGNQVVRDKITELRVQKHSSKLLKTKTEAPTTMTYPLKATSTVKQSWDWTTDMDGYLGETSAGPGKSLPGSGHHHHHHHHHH

Human VSIG4-L-Fc [27] = target: T1, Human VSIG4-L-Fc; test: BLI binning on hVSIG4-L-Fc, competitor 12A08 first;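 note: normalized to binding of second antibody without first competitor antibody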
Human VSIG4-L-Fc [28] = target: T1, Human VSIG4-L-Fc; test: BLI binning on hVSIG4-L-Fc, competitor 15A06 first;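 note: normalized to binding of second antibody without first competitor antibody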

T6 sequence (chain, as listed by the source limits assumed): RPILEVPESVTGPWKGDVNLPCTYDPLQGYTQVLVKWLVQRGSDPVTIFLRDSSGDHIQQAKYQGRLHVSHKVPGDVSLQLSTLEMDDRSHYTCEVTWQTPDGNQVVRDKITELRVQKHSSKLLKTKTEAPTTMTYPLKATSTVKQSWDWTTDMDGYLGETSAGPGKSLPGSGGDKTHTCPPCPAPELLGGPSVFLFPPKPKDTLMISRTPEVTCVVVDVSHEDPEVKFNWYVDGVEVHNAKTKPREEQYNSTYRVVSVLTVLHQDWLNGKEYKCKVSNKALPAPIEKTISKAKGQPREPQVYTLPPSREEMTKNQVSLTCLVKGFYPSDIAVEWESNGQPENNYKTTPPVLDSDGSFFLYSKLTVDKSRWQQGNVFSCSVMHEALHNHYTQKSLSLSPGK

B1: 16G02 mouse/human chimeric IgG4 (S228P) kappa (antibody, V domains shown)
VH: QVQLQQSGAELMKPGASVKISCKATGYTFSSYWIEWVKQRPGHGLEWIGEILPGSSTTNYNEKFKGKATFTADTSSNTAYMQLSSLTSEDSAVYYCAREDHFITTARYAMDYWGQGTSVTVSS
VL: DIVLTQSPASLAMSVGQKVTMSCKSSQSLLNSSNQKNYLAWYQQKPGQSPKLLLYFASTRESGVPDRFIGSGSGTDFTLTISSVQAEDLADYFCQQHYSNPLTFGAGTKLELKR
% Block iC3b (200 nM mAb) (Human VSIG4-L-Fc [1]): 98%
binding signal (nm shift) (Human VSIG4-L-Fc [2]): 0.11 nm
IC50 (Human VSIG4-L-Fc [3]): 1 nM
Binding (200 nM) MFI [4]: 38100 MFI
binding signal (nm shift) (Human VSIG4-L-Fc [5]): 0.1 nm
% Block C3b (200 nM mAb) (Human VSIG4-L-Fc [6]): 96%
binding result (Mouse VSIG4-His [7]): no binding (tested: 50 nM)
EC50 [8]: 5.2 nM
Binding (200 nM) Fold-Over-Parental [9]: 130 fold
binding signal (nm shift) (Human VSIG4-L-Fc [10]): 0.11 nm
IC50 (Human VSIG4-L-Fc [11]): 1.1 nM
Kd [12]: 1.3 nM
Kd (Human VSIG4-L-His [13]): 2.5 nM

B2: 15A06 mouse/human chimeric IgG4 (S228P) kappa (antibody, V domains shown)
VH: QVQMKQSGPSLVRPSQTLSLTCSVTGDSITSGYWNWIRKFPGDKFEYLGYISYSGFTYYNPSLKSRVSITRDTSKNQYYLQLHSVTTEDTATYYCASSKYGSSLGFPYWGQGTLVTVSA
VL: DVVMTQTPLSLPVSLGDQASISCRSSQSLVHSNGNTYLHWYLQKPGQSPKLLIYKVSNRFSGVPDRFSGSGSGTDFTLKISRVEAEDLGVYFCSQSTHVPFTFGSGTKLEIKR
normalized maximum binding nm shift (Human VSIG4-L-Fc [14]): 0.53 normalized
% Block iC3b (200 nM mAb) (Human VSIG4-L-Fc [1]): 2%
normalized maximum binding nm shift (Human VSIG4-L-Fc [15]): 0.95 normalized
Kd (Human VSIG4-L-His [16]): 28.5 nM
Binding (200 nM) MFI [4]: 23900 MFI
normalized maximum binding nm shift (Human VSIG4-L-Fc [17]): 0.73 normalized
ELISA OD450 [18]: 4.35 OD450
normalized maximum binding nm shift (Human VSIG4-L-Fc [19]): 0.79 normalized
normalized maximum binding nm shift (Human VSIG4-L-Fc [20]): 0.91 normalized
normalized maximum binding nm shift (Human VSIG4-L-Fc [21]): 0.15 normalized
ELISA OD450 (Human VSIG4-S-Fc): 0.24 OD450
ELISA OD450 (Mouse VSIG4-His [22]): 0.067 OD450
ELISA OD450 (Human VSIG4-L-Fc [23]): 4.38 OD450
% Block C3b (200 nM mAb) (Human VSIG4-L-Fc [6]): -24%
EC50 [24]: 2.4 nM
normalized maximum binding nm shift (Human VSIG4-L-Fc [25]): 0.79 normalized
normalized maximum binding nm shift (Human VSIG4-L-Fc [26]): 0.8 normalized
Binding (200 nM) Fold-Over-Parental [9]: 63 fold
binding result (Human VSIG4-S-His): no binding (tested: 100 nM)
normalized maximum binding nm shift (Human VSIG4-L-Fc [27]): 0.88 normalized
normalized maximum binding nm shift (Human VSIG4-L-Fc [28]): 0.12 normalized
Kd [12]: 14.3 nM
Kd (Human VSIG4-L-His [13]): 15 nM
